± gives the standard error. For some of these results: Fewer inactive variants are shown than the library holds.
B1: glmS ribozyme (parent)
chain: AUAAAAGCGCCAGAACUACAGAAAUGUAGUUGACGAGGAGGAGGUUUAUCGAAUUUUCGGCGGAUGCCUCCAAA

Experiments:
Conditions in all cases: with glucosamine-6-phosphate
glucosamine-6-phosphate [1] = variants of: B1; experiment: kcat; higher = faster cleavage; RNA array
Outline: (§1)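 Using a hybridised Cy3 probe at 37 °C, barcoded ribozyme variants transcribed in situ by E. coli RNA polymerase on sequenced MiSeq chips were monitored across tiles imaged over ~14 h. The flow contained glucosamine-6-phosphate from 40 μM to 10 mM in HEPES/KCl/Mg(OAc)2 buffer. Signals were normalised to baseline and to non-cleaving reference variants before per-tile medians were fit to one- or two-exponential decays to yield kobs. Weighted Michaelis–Menten fits across concentrations gave kcat and KM.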

glucosamine-6-phosphate [2] = variants of: B1; experiment: KM; higher = weaker cofactor use; RNA array
Outline: as §1

glucosamine-6-phosphate [3] = variants of: B1; experiment: self-cleavage kobs at 2500 uM GlcN6P; higher = faster cleavage; RNA array
Outline: as §1

glucosamine-6-phosphate [4] = variants of: B1; experiment: self-cleavage kobs at 10000 uM GlcN6P; higher = faster cleavage; RNA array
Outline: as §1

glucosamine-6-phosphate [5] = variants of: B1; experiment: self-cleavage kobs at 160 uM GlcN6P; higher = faster cleavage; RNA array
Outline: as §1

glucosamine-6-phosphate [6] = variants of: B1; experiment: self-cleavage kobs at 640 uM GlcN6P; higher = faster cleavage; RNA array
Outline: as §1

glucosamine-6-phosphate [7] = variants of: B1; experiment: self-cleavage kobs at 40 uM GlcN6P; higher = faster cleavage; RNA array
Outline: as §1

| Variant | kcat (glucosamine-6-phosphate [1]) | KM (glucosamine-6-phosphate [2]) | self-cleavage kobs at 2500 uM GlcN6P (glucosamine-6-phosphate [3]) | self-cleavage kobs at 10000 uM GlcN6P (glucosamine-6-phosphate [4]) | self-cleavage kobs at 160 uM GlcN6P (glucosamine-6-phosphate [5]) | self-cleavage kobs at 640 uM GlcN6P (glucosamine-6-phosphate [6]) | self-cleavage kobs at 40 uM GlcN6P (glucosamine-6-phosphate [7]) |
| --- | --- | --- | --- | --- | --- | --- | --- |
| C16A G59A | 1.02e-05 ± 3.6e-06 s⁻¹ |  |  |  |  |  |  |
| C16A G66U | 0.000122 ± 3.2e-05 s⁻¹ | 8450 ± 4000 µM | 2.61e-05 ± 1.2e-05 s⁻¹ | 6.63e-05 ± 1.5e-05 s⁻¹ |  |  |  |
| C16G U69G | 4.98e-05 ± 9.6e-06 s⁻¹ |  | 5.34e-05 ± 6.2e-06 s⁻¹ |  | 3.78e-05 ± 1.2e-05 s⁻¹ | 5.32e-05 ± 1.1e-05 s⁻¹ |  |
| G29C A48U U69G | 6.26e-05 ± 2.1e-05 s⁻¹ |  | 7.04e-05 ± 3e-05 s⁻¹ |  |  | 5.01e-05 ± 2.1e-05 s⁻¹ |  |
| A15U C16U | 0.00176 ± 0.00028 s⁻¹ | 1750 ± 440 µM | 0.000885 ± 0.00016 s⁻¹ | 0.00172 ± 0.00026 s⁻¹ | 0.000152 ± 3.2e-05 s⁻¹ | 0.000423 ± 9.6e-05 s⁻¹ | 4.63e-05 ± 9.6e-06 s⁻¹ |
| C16U G51A C61G | 1.5e-05 ± 3.9e-06 s⁻¹ |  |  |  |  |  |  |
| A15U A39G C71G | 0.000145 ± 6.1e-05 s⁻¹ |  | 9.89e-05 ± 3.7e-05 s⁻¹ | 0.000288 ± 0.0001 s⁻¹ |  | 0.000116 ± 3.5e-05 s⁻¹ |  |
| C16G U54A | 0.00588 ± 0.0013 s⁻¹ | 1860 ± 560 µM | 0.0024 ± 0.00062 s⁻¹ | 0.00601 ± 0.00089 s⁻¹ | 0.000487 ± 0.00011 s⁻¹ | 0.00144 ± 0.00019 s⁻¹ | 0.000135 ± 1.8e-05 s⁻¹ |
| C16G U54G | 0.00297 ± 0.00074 s⁻¹ | 1080 ± 460 µM | 0.00175 ± 0.0004 s⁻¹ | 0.00291 ± 0.00046 s⁻¹ | 0.000312 ± 6.7e-05 s⁻¹ | 0.00211 ± 0.0008 s⁻¹ | 0.000177 ± 3.8e-05 s⁻¹ |
| C19A G59U | 0.000115 ± 2.9e-05 s⁻¹ |  |  | 3.11e-05 ± 1.5e-05 s⁻¹ |  |  |  |
| C16G U49G | 6.89e-05 ± 1.1e-05 s⁻¹ |  | 5.02e-05 ± 1.3e-05 s⁻¹ | 5.76e-05 ± 1.1e-05 s⁻¹ |  |  |  |
| G29A A39C | 0.000943 ± 4.4e-05 s⁻¹ | 1820 ± 150 µM | 0.000521 ± 8.6e-05 s⁻¹ | 0.000813 ± 9.1e-05 s⁻¹ | 7.61e-05 ± 1.5e-05 s⁻¹ | 0.000243 ± 3.2e-05 s⁻¹ | 2.46e-05 ± 8.5e-06 s⁻¹ |
| G29A A39U | 0.0047 ± 0.0016 s⁻¹ | 3440 ± 1600 µM | 0.00176 ± 0.0003 s⁻¹ | 0.0037 ± 0.00049 s⁻¹ | 0.000177 ± 3.4e-05 s⁻¹ | 0.000731 ± 0.00013 s⁻¹ | 0.000107 ± 1.9e-05 s⁻¹ |
| A15U U46A | 0.000378 ± 2.9e-05 s⁻¹ | 2050 ± 300 µM | 0.000225 ± 2.3e-05 s⁻¹ | 0.000303 ± 3.2e-05 s⁻¹ | 3.16e-05 ± 1.1e-05 s⁻¹ | 8.53e-05 ± 9.5e-06 s⁻¹ |  |
| A15U C16G C50G A52G | 1.88e-05 ± 5.2e-06 s⁻¹ |  |  |  |  |  |  |
| C16A U46G A48G C50U C67A | 1.04e-05 ± 4.5e-06 s⁻¹ |  |  |  |  |  |  |
| C16U G43A | 8.72e-05 ± 3e-05 s⁻¹ |  | 2.82e-05 ± 1e-05 s⁻¹ | 6.17e-05 ± 1e-05 s⁻¹ |  |  | < 1e-05 s⁻¹ |
| C16U G43U | 4.2e-05 ± 1.9e-07 s⁻¹ | 1250 ± 27 µM | 2.81e-05 ± 1.3e-05 s⁻¹ | 3.73e-05 ± 1e-05 s⁻¹ |  |  |  |

| Variant | kcat (glucosamine-6-phosphate [1]) | KM (glucosamine-6-phosphate [2]) | self-cleavage kobs at 2500 uM GlcN6P (glucosamine-6-phosphate [3]) | self-cleavage kobs at 10000 uM GlcN6P (glucosamine-6-phosphate [4]) | self-cleavage kobs at 160 uM GlcN6P (glucosamine-6-phosphate [5]) | self-cleavage kobs at 640 uM GlcN6P (glucosamine-6-phosphate [6]) | self-cleavage kobs at 40 uM GlcN6P (glucosamine-6-phosphate [7]) |
| --- | --- | --- | --- | --- | --- | --- | --- |
| A15U G44A | 3.69e-05 ± 5.2e-07 s⁻¹ | 2790 ± 140 µM |  | 2.88e-05 ± 1.1e-05 s⁻¹ |  |  |  |
| C16G U30A U65G | 0.000143 ± 7.4e-06 s⁻¹ | 4140 ± 530 µM | 5.44e-05 ± 2e-05 s⁻¹ | 0.000101 ± 2.1e-05 s⁻¹ |  |  |  |
| G29C A52G | 0.000125 ± 7.9e-06 s⁻¹ | 1940 ± 350 µM | 7.18e-05 ± 1e-05 s⁻¹ | 0.000104 ± 1e-05 s⁻¹ |  | 2.88e-05 ± 7.9e-06 s⁻¹ |  |
| A15U A52U C68A | 2.12e-05 ± 5.2e-06 s⁻¹ |  |  | < 1e-05 s⁻¹ |  |  |  |
| G29A U54A | 0.00945 ± 0.0024 s⁻¹ | 3150 ± 1100 µM | 0.00422 ± 0.00084 s⁻¹ | 0.00745 ± 0.0014 s⁻¹ |  | 0.0011 ± 0.00037 s⁻¹ | 0.000135 ± 2.1e-05 s⁻¹ |
| G29A G60C | < 1e-05 s⁻¹ |  |  | < 1e-05 s⁻¹ |  | < 1e-05 s⁻¹ |  |
| C16U A64U | 9.47e-05 ± 1.3e-05 s⁻¹ |  | 7.64e-05 ± 1.2e-05 s⁻¹ | 8e-05 ± 6.6e-06 s⁻¹ |  |  |  |
| C16U G44C | 6.71e-05 ± 2.3e-05 s⁻¹ |  | 2.88e-05 ± 1.4e-05 s⁻¹ | 8.38e-05 ± 1.3e-05 s⁻¹ |  | 6.27e-05 ± 1.7e-05 s⁻¹ |  |
| C16U G44A | 0.000353 ± 9.4e-05 s⁻¹ |  | 0.000392 ± 7.1e-05 s⁻¹ | 0.000277 ± 3.6e-05 s⁻¹ |  | 7.56e-05 ± 1.5e-05 s⁻¹ |  |
| C16U A48U C58G C70G | 4.36e-05 ± 1.5e-05 s⁻¹ |  |  |  | 4e-05 ± 1.8e-05 s⁻¹ | 7.73e-05 ± 3e-05 s⁻¹ |  |
| C16U U56C | 0.00495 ± 0.00037 s⁻¹ | 4050 ± 460 µM | 0.00199 ± 0.00037 s⁻¹ | 0.00349 ± 0.00036 s⁻¹ | 0.00024 ± 8.3e-05 s⁻¹ | 0.000693 ± 0.00011 s⁻¹ | 4.49e-05 ± 7.9e-06 s⁻¹ |
| C16G U65G | 0.00228 ± 0.0011 s⁻¹ |  | 0.000455 ± 0.00013 s⁻¹ | 0.00143 ± 0.00036 s⁻¹ | 6.11e-05 ± 1.6e-05 s⁻¹ | 0.000149 ± 6.2e-05 s⁻¹ |  |
| C16G G32A C68U | 0.000119 ± 1.4e-05 s⁻¹ |  | 9.95e-05 ± 3.8e-05 s⁻¹ | 0.000115 ± 1.8e-05 s⁻¹ |  | 0.000129 ± 3.9e-05 s⁻¹ |  |
| A15U U47A | 0.00433 ± 0.0014 s⁻¹ | 1960 ± 890 µM | 0.00263 ± 0.00057 s⁻¹ | 0.00356 ± 0.0009 s⁻¹ | 0.000273 ± 6.7e-05 s⁻¹ | 0.000846 ± 0.00036 s⁻¹ | 0.00015 ± 3.6e-05 s⁻¹ |
| A15U C50G A53U U55A | 3.35e-05 ± 1.6e-05 s⁻¹ |  | 4.02e-05 ± 1.8e-05 s⁻¹ |  |  |  |  |
| G29A U45A | 0.0109 ± 0.003 s⁻¹ | 3200 ± 1300 µM | 0.00447 ± 0.0012 s⁻¹ | 0.00857 ± 0.0012 s⁻¹ | 0.000411 ± 0.00014 s⁻¹ | 0.00159 ± 0.00032 s⁻¹ | 0.000219 ± 4.2e-05 s⁻¹ |
| A15U U69G | 5.2e-05 ± 1.9e-05 s⁻¹ |  | 6.85e-05 ± 2.1e-05 s⁻¹ |  | 4.3e-05 ± 1.3e-05 s⁻¹ |  |  |
